Laboratory results taken from patent publication US20220324959A1 (Janssen / Centocor, published 2022).

Columns and labels:
recombinant human TNFα [1] = target: T1, recombinant human TNFα (human, UniProt P01375 77-233, 125I label in the receptor blocking assay); test: cell-based or functional assay
recombinant human TNFα [2] = target: T1, recombinant human TNFα; test: inhibition of 125I-TNFα binding to plate-coated p55-sf2, hybridoma supernatant
Protocol: (§1) 50:1 of p55-sf2 at 0.5:g/ml in PBS was added to Optiplates to coat the wells during a one-hour incubation at 37° C. Serial dilutions of the eight TNV cell supernatants were prepared in 96-well round-bottom plates using PBS/0.1% BSA as diluent. […] The mixture was preincubated for one hour at RT. The coated Optiplates were washed to remove unbound p55-sf2 and 50:1 of the ¹²⁵I-TNFα/cell supernatant mixture was transferred to the Optiplates. After 2 hrs at RT, Optiplates were washed three times with PBS-Tween. […] of Microscint-20 was added and the cpm bound determined using the TopCount gamma counter.
A simple binding assay was done to determine whether the eight TNV mAbs contained in hybridoma cell supernatant were capable of blocking TNFα binding to receptor. The concentrations of the TNV mAbs in their respective cell supernatants were first determined by standard ELISA analysis for human IgG.

recombinant human TNFα [3] = target: T1, recombinant human TNFα; test: competition radioligand assay: mAb in hybridoma supernatant preincubated with 5 ng/ml 125I-TNFα, then binding of 125I-TNFα to plate-coated p55-sf2 (TNF receptor/IgG fusion) counted as cpm bound
Protocol: Varying amounts of hybridoma cell supernatants containing known amounts of TNV mAb were preincubated with a fixed concentration (5 ng/ml) of ¹²⁵I-labeled TNFα. […] The amount of TNFα that bound to the p55 receptor in the presence of the mAbs was determined after washing away the unbound material and counting using a gamma counter. Although eight TNV mAb samples were tested in these experiments, for simplicity three of the mAbs that were shown by DNA sequence analyses to be identical to one of the other TNV mAbs (see Section 5.2.2) are not shown here. Each sample was tested in duplicate. The results shown are representative of two independent experiments.
as §1

B1: TNV148 (antibody, human IgG1, kappa, V domains shown)
VH: QVQLVESGGGVVQPGRSLRLSCAASGFIFSSYAMHWVRQAPGNGLEWVAFMSYDGSNKKYADSVKGRFTISRDNPKNTLYLQMNSLRAEDTAVYYCARDRGIAAGGNYYYYGMDVWGQGTTVTVSS
VL: EIVLTQSPATLSLSPGERATLSCRASQSVYSYLAWYQQKPGQAPRLLIYDASNRATGIPARFSGSGSGTDFTLTISSLEPEDFAVYYCQQRSNWPPFTFGPGTKVDIKR
notes: Hybridoma-derived fully human IgG1 kappa, tested as hybridoma supernatant; also called GenTNV148.26.12; C420A
- neutralizing TNFα bioactivity (recombinant human TNFα [1]): 4 fold
- fold better at blocking TNF binding (against TNV118 and TNV14) (recombinant human TNFα [2]): ~4 fold
- IC50 (read off the curve) (recombinant human TNFα [3]): ~4 ng/mL

B2: TNV86 (antibody, human IgG1, kappa, V domains shown)
VH: QVQLVESGGGVVQPGRSLRLSCAASGFIFSSYAMHWVRQAPGNGLEWVAFMSYDGSNKKYADSVKGRFTISRDNPKNTLYLQMNSLRAEDTAVYYCARDRGIAAGGNYYYYGMDVWGQGTTVTVSS
VL: EIVLTQSPATLSLSPGERATLSCRASQSVYSYLAWYQQKPGQAPRLLIYDASNRATGIPARFSGSGSGTDFTLTISSLEPEDFAVYYCQQRSNWPPFTFGPGTKVDIKR
notes: Hybridoma-derived fully human IgG1 kappa, tested as hybridoma supernatant; Identity is stated for the variable regions only; also called GenTNV86.14.34; C417A
- fold better at blocking TNF binding (against TNV118 and TNV14) (recombinant human TNFα [2]): ~4 fold
